Results published in patent US20260139026A1 (Memorial Sloan Kettering, published 2026).

What was measured:
[1] = molecular target: P3 peptide … pulsed on HLA-A*03:01 cells (human, UniProt A*03:01); experiment: cell-based or functional assay
[2] = molecular target: P7 peptide … pulsed on HLA-A*03:01 cells (human, UniProt A*03:01); experiment: cell-based or functional assay
[3] = molecular target: P6 peptide … pulsed on HLA-A*03:01 cells (human, UniProt A*03:01); experiment: cell-based or functional assay
[4] = molecular target: P8 peptide … pulsed on HLA-A*03:01 cells (human, UniProt A*03:01); experiment: cell-based or functional assay
[5] = molecular target: P2 peptide … pulsed on HLA-A*03:01 cells (human, UniProt A*03:01); experiment: cell-based or functional assay
[6] = molecular target: P5 peptide … pulsed on HLA-A*03:01 cells (human, UniProt A*03:01); experiment: cell-based or functional assay
[7] = molecular target: P4 peptide … pulsed on HLA-A*03:01 cells (human, UniProt A*03:01); experiment: cell-based or functional assay
[8] = molecular target: P9 peptide … pulsed on HLA-A*03:01 cells (human, UniProt A*03:01); experiment: cell-based or functional assay
recombinant HLA-A*03:01 = molecular target: T1, recombinant HLA-A*03:01 (human); experiment: differential scanning fluorimetry of peptide/HLA-A*03:01, two technical replicates
T1 construct: MHC class I molecule used in differential scanning fluorimetry and crystallography. 'Recombinant' is printed only for the crystal structures; also called HLA-A*03:01 molecule
Text: Experiments included two technical replicates for each group. […] It measured the change in fluorescent signal of a dye that binds preferentially to hydrophobic resides that are exposed as an unstable protein unfolds.

B1: 1022T8 TCR (TCR, V domains shown)
V domain 1: GDSVTQMEGPVTLSEEAFLTINCTYTATGYPSLFWYVQYPGEGLQLLLKATKADDKGSNKGFEATYRKETTSFHLEKGSVQVSDSAVYFCALTVGGSYIPTFGRGTSLIVHP
V domain 2: DTEVTQTPKHLVMGMTNKKSLKCEQHMGHRAMYWYKQKAKKPPELMFVYSYEKLSINESVPSRFSPECPNSSLLNLHLHALQPEDSALYLCASSQGGQGWRETQYFGPGTRLLVLE
loss in function against the unmodified mutated 9-mer [1]: > 50 % loss in function
loss in function against the unmodified mutated 9-mer [2]: > 50 % loss in function
loss in function against the unmodified mutated 9-mer [3]: > 50 % loss in function
loss in function against the unmodified mutated 9-mer [4]: > 50 % loss in function
loss in function against the unmodified mutated 9-mer [5]: > 50 % loss in function
loss in function against the unmodified mutated 9-mer [6]: > 50 % loss in function
loss in function against the unmodified mutated 9-mer [7]: > 50 % loss in function
loss in function against the unmodified mutated 9-mer [8]: > 50 % loss in function

AHHGGWTTK (also called WT peptide) [wildtype PIK3CA minimal peptide AHHGGWTTK]
melting temperature (recombinant HLA-A*03:01): 36 degrees
